Experimental data as given in patent US20260265412A1.

Experiments:
human MASP3-His (human) = human MASP3-His (human) (UniProt P48740); assay: cell-based or functional assay
[1] = biological target: MASP3 in Factor D depleted human plasma (human) (UniProt P48740); assay: cell-based or functional assay
Chain of MASP3 in Factor D depleted human plasma (human) (P48740 other isoform, or with tags, fused parts or gaps): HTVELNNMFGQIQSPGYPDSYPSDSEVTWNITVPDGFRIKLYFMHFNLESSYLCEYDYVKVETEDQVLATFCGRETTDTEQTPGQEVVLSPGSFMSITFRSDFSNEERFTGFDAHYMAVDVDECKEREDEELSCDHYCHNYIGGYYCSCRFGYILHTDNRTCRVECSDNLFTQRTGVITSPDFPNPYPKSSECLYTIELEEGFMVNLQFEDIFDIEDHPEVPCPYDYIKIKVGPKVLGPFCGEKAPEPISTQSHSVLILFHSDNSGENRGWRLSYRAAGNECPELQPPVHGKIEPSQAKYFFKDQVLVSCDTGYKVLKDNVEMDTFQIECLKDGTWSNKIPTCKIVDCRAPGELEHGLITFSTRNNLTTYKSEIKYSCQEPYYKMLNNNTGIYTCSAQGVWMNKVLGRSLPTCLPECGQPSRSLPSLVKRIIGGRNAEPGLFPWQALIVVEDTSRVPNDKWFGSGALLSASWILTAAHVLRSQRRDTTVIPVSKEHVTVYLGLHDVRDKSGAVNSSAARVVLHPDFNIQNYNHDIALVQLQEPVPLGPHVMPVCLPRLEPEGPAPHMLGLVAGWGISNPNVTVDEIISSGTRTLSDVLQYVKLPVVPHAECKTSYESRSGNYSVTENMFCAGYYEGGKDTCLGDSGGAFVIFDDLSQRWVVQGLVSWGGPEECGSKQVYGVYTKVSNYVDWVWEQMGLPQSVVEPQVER

Chain of human MASP3-His (human) (P48740 other isoform, or with tags, fused parts or gaps): as above

- IC50 of inhibition of MASP3 enzymatic activity (cleavage of fluorescent tripeptide Boc-Val-Pro-Arg-AMC) (human MASP3-His (human)): 200 nM
Substance: OMS906 (antibody)
- Inhibit Hemolysis IC50 (alternative pathway, rabbit or guinea pig red blood cells) [1]: 13 nM
- Inhibit hemolysis IC50 (alternative pathway) [1]: 17.1 nM
